Assay results published in publication PMC11438954 (Nature Communications, 2024).

Assays:
[1] = target: NavMs (NavMs F208L, referred to as WT in the paper), prokaryotic voltage-gated sodium channel from Magnetococcus marinus (Magnetococcus marinus) (UniProt A0L5S6); experiment: crystal structure; NavMs (10 mg/ml, 300 uM) with 0.5 mM riluzole in 1% DMSO, or 1% DMSO alone; sitting drops at 4 °C, 30-35% PEG 300, 100 mM HEPES pH 7, 0-100 mM NaCl, HEGA-10 detergent; space group I422, one monomer per asymmetric unit, tetramer by crystal symmetry
NavMs = target: T1, NavMs (Magnetococcus marinus, UniProt A0L5S6, F208L); experiment: X-ray crystal structure with sulphur anomalous signal; […]-19F STD NMR; IC50 from whole-cell patch clamp (SSI shift) in HEK293T cells; format: cell-based
T1 construct: gene Mmc1_0798; full-length homotetrameric channel, thrombin-treated
T1 sequence (A0L5S6 entry or part of it F208L): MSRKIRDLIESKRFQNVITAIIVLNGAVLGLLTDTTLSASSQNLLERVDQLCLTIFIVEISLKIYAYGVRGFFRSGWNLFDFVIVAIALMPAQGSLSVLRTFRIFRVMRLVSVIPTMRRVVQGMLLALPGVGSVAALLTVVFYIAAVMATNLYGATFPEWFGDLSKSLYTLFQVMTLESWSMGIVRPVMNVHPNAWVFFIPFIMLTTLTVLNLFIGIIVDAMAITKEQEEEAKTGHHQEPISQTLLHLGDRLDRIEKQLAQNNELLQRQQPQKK

| stoichiometry N [1] | Molecule | IC50 (NavMs) |
| --- | --- | --- |
| 4 | NavMs (NavMs F208L, referred to as WT in the paper), prokaryotic voltage-gated sodium channel from Magnetococcus marinus (from UniProt A0L5S6 1-274) (natural protein) | – |
| – | Nc1nc2ccc(OC(F)(F)F)cc2s1 [riluzole, 2-amino-6-(trifluoromethoxy)benzothiazole] | 2000 nM |
